# Laboratory results reported in paper PMC12102759.
# B1: PIP5K1C peptide 640-655 (Phosphatidylinositol 4-phosphate 5-kinase type-1 gamma), 16-mer library wild type / TLN1 PTB (TLN1 Phosphotyrosine-binding (PTB) domain, residues 309-401) (parent)
# chain 1: FPTDERSWVYSPLHYS
# chain 2: GVSFFLVKEKMKGKNKLVPRLLGITKECVMRVDEKTKEVIQEWNLTNIKRWAASPKSFTLDFGDYQDGYYSVQTTEGEQIAQLIAGYIDIILK
# Variants of: B1
# Test: proteomic peptide phage display deep mutational scan (ProP-PD DMS): M13 P8 16-mer library selected against immobilised GST-tagged bait for four days (rounds), NGS of the eluted pools per day and pseudo-replica
# Settings: with TLN1 PTB (TLN1 Phosphotyrosine-binding (PTB) domain, residues 309-401); bait immobilised on MaxiSorp plates (10 µg), library pre-cleared on GST, 2 h binding at 4 °C, five washes; one round per day, days 1-4; value from days 2 and 3; keep out of graded; scale: average fractional NGS count over selection days 2 and 3
row,Variant,screen value
1,chain 1 FPTDEGSWVYSPLHYS [chain 1 R6G],5.92e-05
2,chain 1 FPTDEHSWVYSPLHYS [chain 1 R6H],3.76e-05
3,chain 1 FPTDEESWVYSPLHYS [chain 1 R6E],0
4,chain 1 FPTDEDSWVYSPLHYS [chain 1 R6D],0.000455
5,chain 1 FPTDESSWVYSPLHYS [chain 1 R6S],0.00302
6,chain 1 FPTDEASWVYSPLHYS [chain 1 R6A],0.00241
7,chain 1 FPTDEWSWVYSPLHYS [chain 1 R6W],0.000249
8,chain 1 FPTDEPSWVYSPLHYS [chain 1 R6P],0.000213
9,chain 1 FPTDEMSWVYSPLHYS [chain 1 R6M],0.00014
10,chain 1 FPTDEISWVYSPLHYS [chain 1 R6I],0.000686
11,chain 1 FPTDELSWVYSPLHYS [chain 1 R6L],0.000156
12,chain 1 FPTDETSWVYSPLHYS [chain 1 R6T],0.000205
13,chain 1 FPTDEFSWVYSPLHYS [chain 1 R6F],0
14,chain 1 FPTDENSWVYSPLHYS [chain 1 R6N],8.35e-05
15,chain 1 FPTDEYSWVYSPLHYS [chain 1 R6Y],0.000115
16,chain 1 FPTDEQSWVYSPLHYS [chain 1 R6Q],9.86e-05
17,chain 1 FPTDEKSWVYSPLHYS [chain 1 R6K],9.21e-05
18,chain 1 FPTDEVSWVYSPLHYS [chain 1 R6V],0.000984
19,chain 1 FPTDERSWVYLPLHYS [chain 1 S11L],0
20,chain 1 FPTDERSWVYMPLHYS [chain 1 S11M],3.45e-05
21,chain 1 FPTDERSWVYDPLHYS [chain 1 S11D],0
22,chain 1 FPTDERSWVYPPLHYS [chain 1 S11P],7.58e-05

row,Variant,screen value
1,chain 1 FPTDERSWVYIPLHYS [chain 1 S11I],0
2,chain 1 FPTDERSWVYAPLHYS [chain 1 S11A],7.18e-05
3,chain 1 FPTDERSWVYSPLHYG [chain 1 S16G],0.00097
4,chain 1 FPTDERSWVYSPLHYI [chain 1 S16I],0.00119
5,chain 1 FPTDERSWVYSPLHYL [chain 1 S16L],0.000143
6,chain 1 FPTDERSWVYSPLHYM [chain 1 S16M],0.000225
7,chain 1 FPTDERSWVYSPLHYH [chain 1 S16H],0.00034
8,chain 1 FPTDERSWVYSPLHYA [chain 1 S16A],0.000894
9,chain 1 FPTDERSWVYSPLHYF [chain 1 S16F],0.000114
10,chain 1 FPTDERSWVYSPLHYE [chain 1 S16E],0.000308
11,chain 1 FPTDERGWVYSPLHYS [chain 1 S7G],6.31e-05
12,chain 1 FPTDERLWVYSPLHYS [chain 1 S7L],0.00013
13,chain 1 FPTDERPWVYSPLHYS [chain 1 S7P],0
14,chain 1 FPTDERMWVYSPLHYS [chain 1 S7M],0.000552
15,chain 1 FPTDERNWVYSPLHYS [chain 1 S7N],3.76e-05
16,chain 1 FPTDERKWVYSPLHYS [chain 1 S7K],0.000214
17,chain 1 FPTDERVWVYSPLHYS [chain 1 S7V],6.47e-05
18,chain 1 FPTDEREWVYSPLHYS [chain 1 S7E],6.81e-05
19,chain 1 FPTDERRWVYSPLHYS [chain 1 S7R],0.000434
20,chain 1 FPTDERDWVYSPLHYS [chain 1 S7D],8.2e-05
21,chain 1 FPTDERTWVYSPLHYS [chain 1 S7T],0.000136
22,chain 1 FPTDERYWVYSPLHYS [chain 1 S7Y],0.000136

row,Variant,screen value
1,chain 1 FPTDERIWVYSPLHYS [chain 1 S7I],0.00143
2,chain 1 FPTDERHWVYSPLHYS [chain 1 S7H],0.00017
3,chain 1 FPTDERWWVYSPLHYS [chain 1 S7W],0.000136
4,chain 1 FYTDERSWVYSPLHYS [chain 1 P2Y],6.83e-05
5,chain 1 FPTDERSWVYSNLHYS [chain 1 P12N],0.000185
6,chain 1 FPTDERSWVYSMLHYS [chain 1 P12M],7.3e-05
7,chain 1 FPTDERSWVYSKLHYS [chain 1 P12K],5.51e-05
8,chain 1 FPTDERSWVYSGLHYS [chain 1 P12G],0.000862
9,chain 1 FPTDERSWVYSELHYS [chain 1 P12E],0.00013
10,chain 1 FPTDERSWVYSLLHYS [chain 1 P12L],0.000701
11,chain 1 FPTDERSWVYSWLHYS [chain 1 P12W],0.000107
12,chain 1 FPTDERSWVYSILHYS [chain 1 P12I],0.000302
13,chain 1 FPTDERSWVYSSLHYS [chain 1 P12S],0.000121
14,chain 1 FPTDERSWVYSRLHYS [chain 1 P12R],0.000314
15,chain 1 FPTDERSWVYSALHYS [chain 1 P12A],0.000632
16,chain 1 FPTDERSWVYSVLHYS [chain 1 P12V],9.3e-05
17,chain 1 FPTDERSWVYSTLHYS [chain 1 P12T],0.000179
18,chain 1 FPTDERSWVYSHLHYS [chain 1 P12H],5.79e-05
19,chain 1 FPTDERSWVYSFLHYS [chain 1 P12F],7.27e-05
20,chain 1 FPTDERSWVYSQLHYS [chain 1 P12Q],0.000705

# Now from value to variant:
row,screen value,Variant
1,0.000518,chain 1 FPTDERSWVYSPLHYT [chain 1 S16T]
2,0.000199,chain 1 FPTDERSWVYSPLHYP [chain 1 S16P]
3,0.000165,chain 1 FPTDERSWVYSPLHYN [chain 1 S16N]
4,0.000212,chain 1 FPTDERSWVYSPLHYY [chain 1 S16Y]
5,3.45e-05,chain 1 FPTDERSWVYSPLHYW [chain 1 S16W]
6,0.000729,chain 1 FPTDERSWVYSPLHYV [chain 1 S16V]
7,5.76e-05,chain 1 FPTDERSWVYSPLHYQ [chain 1 S16Q]
8,0.000132,chain 1 FPTDERSWVYSPLHYR [chain 1 S16R]
9,0.000107,chain 1 FPRDERSWVYSPLHYS [chain 1 T3R]
10,0.00018,chain 1 FPSDERSWVYSPLHYS [chain 1 T3S]
11,0.000204,chain 1 FPHDERSWVYSPLHYS [chain 1 T3H]
12,9.69e-05,chain 1 FPGDERSWVYSPLHYS [chain 1 T3G]
13,8.2e-05,chain 1 FPNDERSWVYSPLHYS [chain 1 T3N]
14,4.5e-05,chain 1 FPVDERSWVYSPLHYS [chain 1 T3V]
15,2.4e-05,chain 1 FPMDERSWVYSPLHYS [chain 1 T3M]
16,8.91e-05,chain 1 FPADERSWVYSPLHYS [chain 1 T3A]
17,0.000436,chain 1 FPWDERSWVYSPLHYS [chain 1 T3W]
18,5.93e-05,chain 1 FPDDERSWVYSPLHYS [chain 1 T3D]
19,0.000173,chain 1 FPPDERSWVYSPLHYS [chain 1 T3P]
20,0.000354,chain 1 FPQDERSWVYSPLHYS [chain 1 T3Q]
21,0.000733,chain 1 FPYDERSWVYSPLHYS [chain 1 T3Y]
22,0.00116,chain 1 FPLDERSWVYSPLHYS [chain 1 T3L]
23,5.15e-05,chain 1 FPIDERSWVYSPLHYS [chain 1 T3I]
24,0.000185,chain 1 FPTDERSWGYSPLHYS [chain 1 V9G]
25,0.000489,chain 1 FPTDERSWDYSPLHYS [chain 1 V9D]
26,5.76e-05,chain 1 FPTDERSWIYSPLHYS [chain 1 V9I]
27,0.000141,chain 1 FPTDERSWFYSPLHYS [chain 1 V9F]
28,0.000113,chain 1 FPTDERSWAYSPLHYS [chain 1 V9A]
29,0.000929,chain 1 FPTDERSWEYSPLHYS [chain 1 V9E]
30,0.000257,chain 1 FPTDERSWHYSPLHYS [chain 1 V9H]
